From paper PMC11979922

Target: HOL-30, β-galactoside-binding tandem-repeat galectin from the marine sponge Halichondria okadai (Halichondria okadai)
Test: SEC

Q: Which stoichiometry N does the source give for “HOL-30, β-galactoside-binding tandem-repeat galectin from the marine sponge Halichondria okadai (natural protein)” here?
A: 2
